Measurements from patent US6479055.

Target: viral gp41 (HIV-1 transmembrane protein) of HIV-1IIIB (HIV-1IIIB) (UniProt P03377)
Assay: cell-based or functional assay

Substance | Cell fusion (IC90) | HIV infectivity (IC90)
M41 (maltose binding protein fused to the extracellular domain of HIV-1 gp41, residues 540-686) (from UniProt P0AEX9 27-392; P03377 540-686) | > 50000 nM | > 16000 nM
M41-PΔ178 (M41-P from which the DP-178 region has been deleted; gp41 amino acids 540-642 with Ile578Pro) (from UniProt P03377 540-642) | > 50000 nM | > 8000 nM
DP107 (SEQ ID NO:25), synthetic peptide of residues 558 to 595 of HIV-1LAI gp41 | 1000 nM | 1000 nM
DP178 (SEQ ID NO:1), synthetic peptide of amino acids 638 to 673 of HIV-1LAI gp41 | 1 nM | 80 nM
M41-P (M41 with an Ile to Pro mutation at position 578) (from UniProt P0AEX9 27-392; P03377 540-686) | 83 nM | 66 nM
